Series [1] has as its target ATRIP peptide (Homo sapiens) (UniProt Q8WXE1). The settings on record: cited from earlier work.
In series [2] the target is T1, TbRPA1 DBD-AB (Trypanosoma brucei) (UniProt Q384B5).
T1 sequence: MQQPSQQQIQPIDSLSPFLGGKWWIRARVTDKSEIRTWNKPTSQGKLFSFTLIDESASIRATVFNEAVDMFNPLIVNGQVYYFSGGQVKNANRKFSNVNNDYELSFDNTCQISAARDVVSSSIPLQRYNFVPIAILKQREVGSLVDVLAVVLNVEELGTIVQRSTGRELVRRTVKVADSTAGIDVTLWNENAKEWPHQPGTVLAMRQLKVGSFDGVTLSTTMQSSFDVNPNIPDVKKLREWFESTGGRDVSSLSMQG
Put plainly: MST. To be noted: 20 mM Tris pH 7.5, 10 mM NaCl, 10 mM MgCl2, 2 mM DTT, 10% glycerol, 0.1 mg/ml BSA, 15 min, room temperature; EMSA 2 nM probe (gel at 4 C), MST 10 nM probe.

Series [3] concerns the target TbRPA complex: 6xHis-RPA1;TbRPA2;TbRPA3 (Trypanosoma brucei;Trypanosoma brucei;Trypanosoma brucei) (UniProt Q384B5). Put plainly: MST. To be noted: 20 mM Tris pH 7.5, 10 mM NaCl, 10 mM MgCl2, 2 mM DTT, 10% glycerol, 0.1 mg/ml BSA, 15 min, room temperature, EMSA 2 nM probe (gel at 4 C), MST 10 nM probe. (In EMSA bound probe runs differently from free probe, usually more slowly.)

Series [4] addresses ATRIP peptide (Homo sapiens) (UniProt Q8WXE1). The settings on record: cited from earlier work. This is another data set of the same source.

pKd: −log10 of the molar value. Like-named read-outs stand apart in the source and are kept apart here.

Sequence of ATRIP peptide (Homo sapiens) (Q8WXE1 whole entry): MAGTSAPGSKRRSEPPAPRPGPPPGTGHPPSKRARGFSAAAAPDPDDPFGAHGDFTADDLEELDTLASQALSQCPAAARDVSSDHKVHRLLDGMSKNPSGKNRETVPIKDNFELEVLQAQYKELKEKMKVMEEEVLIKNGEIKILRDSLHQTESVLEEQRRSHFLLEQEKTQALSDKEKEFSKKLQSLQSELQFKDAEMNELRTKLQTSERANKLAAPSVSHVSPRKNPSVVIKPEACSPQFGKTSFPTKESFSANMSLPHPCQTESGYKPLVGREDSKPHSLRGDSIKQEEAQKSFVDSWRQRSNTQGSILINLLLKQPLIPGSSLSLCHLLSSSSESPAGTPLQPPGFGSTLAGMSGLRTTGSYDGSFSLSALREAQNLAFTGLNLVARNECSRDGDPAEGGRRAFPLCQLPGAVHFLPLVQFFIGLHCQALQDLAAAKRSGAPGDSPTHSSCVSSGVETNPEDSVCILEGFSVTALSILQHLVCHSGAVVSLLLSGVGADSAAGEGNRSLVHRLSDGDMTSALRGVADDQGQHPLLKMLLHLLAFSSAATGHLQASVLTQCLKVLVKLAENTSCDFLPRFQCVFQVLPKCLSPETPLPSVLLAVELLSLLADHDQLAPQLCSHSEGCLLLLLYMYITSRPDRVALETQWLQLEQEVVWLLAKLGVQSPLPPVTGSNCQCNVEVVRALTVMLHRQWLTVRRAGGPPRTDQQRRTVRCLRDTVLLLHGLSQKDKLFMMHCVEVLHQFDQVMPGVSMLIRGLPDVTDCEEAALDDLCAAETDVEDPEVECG
Sequence of RPA1 DBD-F DBD-F (P27694 1-120): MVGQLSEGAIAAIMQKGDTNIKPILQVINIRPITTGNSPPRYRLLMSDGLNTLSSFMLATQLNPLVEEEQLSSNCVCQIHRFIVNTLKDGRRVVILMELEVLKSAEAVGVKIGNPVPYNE
Sequence of RPA1 DBD-AB DBD-AB (P27694 181-422): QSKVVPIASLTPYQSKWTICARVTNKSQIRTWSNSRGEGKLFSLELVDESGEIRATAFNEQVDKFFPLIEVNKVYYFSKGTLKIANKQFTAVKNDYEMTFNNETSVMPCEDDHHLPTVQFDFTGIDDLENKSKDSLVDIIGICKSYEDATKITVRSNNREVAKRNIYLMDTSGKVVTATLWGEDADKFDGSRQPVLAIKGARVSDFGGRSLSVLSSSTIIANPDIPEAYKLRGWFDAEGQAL

As usually defined, the pKd is the Kd on a negative log10 scale, so that one unit is a factor of ten. Consider “RPA1 DBD-AB DBD-AB (from UniProt P27694)”, for which the pKd in series [1] was 4.92. Consider TTTTTTTTTTTT [dT12], for which, in series [2], the pKd was 7.22. For TTTTTTTTTTTTTTTTTTTTTTTTTTTTTTTT [dT32], the negative logarithm of the Kd (pKd) in series [3] is 7.88; in series [3] (second measurement, with S105T / length series), 7.81. Regarding RPA1 DBD-F DBD-F (from UniProt P27694), the pKd in series [4] is 5.13. Turning to TTTTTTTTTTTTTTTTTTTT [dT20], in series [3] (17.2 nM in peer review file), the pKd was 7.77.

The values are drawn from article PMC10359466, “Identification of a small-molecule inhibitor that selectively blocks DNA-binding by Trypanosoma brucei replication protein A1” (Nature Communications, 2023).
